Assay results from patent US20180155451A1 (published 2018).

Biological target: T1, FcγRIa (human, UniProt P12314 16-292)
T1 construct: extracellular domain; also called FcgRI; CD64; not shown: C-terminal His tag
Assay: SPR (Biacore), antibody captured on antigen peptide chip, FcγRIa as analyte; relative binding amount
Description: Analysis of interaction between objective antibody and the FcγR was carried out using Biacore T100 (GE Healthcare). HBS-EP+ (GE Healthcare) was used as the running buffer, and the measurement temperature was set to 25° C. Chips produced by immobilizing the antigen peptide by the amine coupling method to a Series S Sencor Chip CM5 (GE Healthcare), or alternatively, chips produced by allowing preliminarily biotinylated antigen peptides to interact with and immobilize onto a Series S Sensor Chip SA (certified) (GE Healthcare) were used. Antibodies of interest were captured onto an antigen peptide-immobilized chip, and allowed to interact to each FcγR diluted with running buffer. To regenerate and repeatedly use the chip, the antibodies captured on the chip were washed off by reacting 10 mM glycine-HCl, pH 1.5.

T1 sequence (P12314 16-292): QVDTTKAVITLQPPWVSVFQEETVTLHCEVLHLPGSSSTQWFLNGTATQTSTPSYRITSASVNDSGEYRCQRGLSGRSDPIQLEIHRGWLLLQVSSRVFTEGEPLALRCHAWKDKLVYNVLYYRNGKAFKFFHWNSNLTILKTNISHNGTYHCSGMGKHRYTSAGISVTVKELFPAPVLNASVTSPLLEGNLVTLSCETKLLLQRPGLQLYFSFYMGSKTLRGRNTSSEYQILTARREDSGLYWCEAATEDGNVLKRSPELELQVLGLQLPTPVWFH

Row | Binder | Ho/Con_1a | He/Con_1a
1 | GpH7-B3 variant Y300_06M/GpL16-k0 (antibody, human IgG1, kappa, homodimerized IgG1; mutation in both H chains; also called Ho Ab) heavy: not shown light: DIVMTQSPLSLPVTPGEPASISCQASESLVHSNRNTYLHWYLQKPGQSPQLLIYKVSNRFSGVPDRFSGSGSGTDFTLKISRVEAEDVGVYYCSQNTHVPPTFGQGTKVEIERTVAAPSVFIFPPSDEQLKSGTASVVCLLNNFYPREAKVQWKVDNALQSGNSQESVTEQDSKDSTYSLSSTLTLSKADYEKHKVYACEVTHQGLSSPVTKSFNRGEC | 111 % of control (GpH7-B3/GpL16-k0 = 100) | 
2 | GpH7-A5/GpH7-B3 variant Y300_01G/GpL16-k0 (antibody, human IgG1, kappa, heterodimerized IgG1; mutation in one H chain only; also called He Ab) heavy 1: not shown heavy 2: not shown light: DIVMTQSPLSLPVTPGEPASISCQASESLVHSNRNTYLHWYLQKPGQSPQLLIYKVSNRFSGVPDRFSGSGSGTDFTLKISRVEAEDVGVYYCSQNTHVPPTFGQGTKVEIERTVAAPSVFIFPPSDEQLKSGTASVVCLLNNFYPREAKVQWKVDNALQSGNSQESVTEQDSKDSTYSLSSTLTLSKADYEKHKVYACEVTHQGLSSPVTKSFNRGEC |  | 116 % of control (GpH7-A5/GpH7-B3/GpL16-k0 = 100)
3 | GpH7-A5/GpH7-B3 variant T335_18N/GpL16-k0 (antibody, human IgG1, kappa, heterodimerized IgG1; mutation in one H chain only; also called He Ab) heavy 1: not shown heavy 2: not shown light: DIVMTQSPLSLPVTPGEPASISCQASESLVHSNRNTYLHWYLQKPGQSPQLLIYKVSNRFSGVPDRFSGSGSGTDFTLKISRVEAEDVGVYYCSQNTHVPPTFGQGTKVEIERTVAAPSVFIFPPSDEQLKSGTASVVCLLNNFYPREAKVQWKVDNALQSGNSQESVTEQDSKDSTYSLSSTLTLSKADYEKHKVYACEVTHQGLSSPVTKSFNRGEC |  | 106 % of control (GpH7-A5/GpH7-B3/GpL16-k0 = 100)
4 | GpH7-B3 variant Y300_10E/GpL16-k0 (antibody, human IgG1, kappa, homodimerized IgG1; mutation in both H chains; also called Ho Ab) heavy: not shown light: DIVMTQSPLSLPVTPGEPASISCQASESLVHSNRNTYLHWYLQKPGQSPQLLIYKVSNRFSGVPDRFSGSGSGTDFTLKISRVEAEDVGVYYCSQNTHVPPTFGQGTKVEIERTVAAPSVFIFPPSDEQLKSGTASVVCLLNNFYPREAKVQWKVDNALQSGNSQESVTEQDSKDSTYSLSSTLTLSKADYEKHKVYACEVTHQGLSSPVTKSFNRGEC | 111 % of control (GpH7-B3/GpL16-k0 = 100) | 
5 | GpH7-A5/GpH7-B3 variant T335_16H/GpL16-k0 (antibody, human IgG1, kappa, heterodimerized IgG1; mutation in one H chain only; also called He Ab) heavy 1: not shown heavy 2: not shown light: DIVMTQSPLSLPVTPGEPASISCQASESLVHSNRNTYLHWYLQKPGQSPQLLIYKVSNRFSGVPDRFSGSGSGTDFTLKISRVEAEDVGVYYCSQNTHVPPTFGQGTKVEIERTVAAPSVFIFPPSDEQLKSGTASVVCLLNNFYPREAKVQWKVDNALQSGNSQESVTEQDSKDSTYSLSSTLTLSKADYEKHKVYACEVTHQGLSSPVTKSFNRGEC |  | 106 % of control (GpH7-A5/GpH7-B3/GpL16-k0 = 100)
6 | GpH7-A5/GpH7-B3 variant Y296_06M/GpL16-k0 (antibody, human IgG1, kappa, heterodimerized IgG1; mutation in one H chain only; also called He Ab) heavy 1: not shown heavy 2: not shown light: DIVMTQSPLSLPVTPGEPASISCQASESLVHSNRNTYLHWYLQKPGQSPQLLIYKVSNRFSGVPDRFSGSGSGTDFTLKISRVEAEDVGVYYCSQNTHVPPTFGQGTKVEIERTVAAPSVFIFPPSDEQLKSGTASVVCLLNNFYPREAKVQWKVDNALQSGNSQESVTEQDSKDSTYSLSSTLTLSKADYEKHKVYACEVTHQGLSSPVTKSFNRGEC |  | 104 % of control (GpH7-A5/GpH7-B3/GpL16-k0 = 100)
7 | GpH7-A5/GpH7-B3 variant Y296_10E/GpL16-k0 (antibody, human IgG1, kappa, heterodimerized IgG1; mutation in one H chain only; also called He Ab) heavy 1: not shown heavy 2: not shown light: DIVMTQSPLSLPVTPGEPASISCQASESLVHSNRNTYLHWYLQKPGQSPQLLIYKVSNRFSGVPDRFSGSGSGTDFTLKISRVEAEDVGVYYCSQNTHVPPTFGQGTKVEIERTVAAPSVFIFPPSDEQLKSGTASVVCLLNNFYPREAKVQWKVDNALQSGNSQESVTEQDSKDSTYSLSSTLTLSKADYEKHKVYACEVTHQGLSSPVTKSFNRGEC |  | 106 % of control (GpH7-A5/GpH7-B3/GpL16-k0 = 100)
8 | GpH7-A5/GpH7-B3 variant T335_19Q/GpL16-k0 (antibody, human IgG1, kappa, heterodimerized IgG1; mutation in one H chain only; also called He Ab) heavy 1: not shown heavy 2: not shown light: DIVMTQSPLSLPVTPGEPASISCQASESLVHSNRNTYLHWYLQKPGQSPQLLIYKVSNRFSGVPDRFSGSGSGTDFTLKISRVEAEDVGVYYCSQNTHVPPTFGQGTKVEIERTVAAPSVFIFPPSDEQLKSGTASVVCLLNNFYPREAKVQWKVDNALQSGNSQESVTEQDSKDSTYSLSSTLTLSKADYEKHKVYACEVTHQGLSSPVTKSFNRGEC |  | 105 % of control (GpH7-A5/GpH7-B3/GpL16-k0 = 100)
9 | GpH7-A5/GpH7-B3 variant T335_20W/GpL16-k0 (antibody, human IgG1, kappa, heterodimerized IgG1; mutation in one H chain only; also called He Ab) heavy 1: not shown heavy 2: not shown light: DIVMTQSPLSLPVTPGEPASISCQASESLVHSNRNTYLHWYLQKPGQSPQLLIYKVSNRFSGVPDRFSGSGSGTDFTLKISRVEAEDVGVYYCSQNTHVPPTFGQGTKVEIERTVAAPSVFIFPPSDEQLKSGTASVVCLLNNFYPREAKVQWKVDNALQSGNSQESVTEQDSKDSTYSLSSTLTLSKADYEKHKVYACEVTHQGLSSPVTKSFNRGEC |  | 106 % of control (GpH7-A5/GpH7-B3/GpL16-k0 = 100)
10 | GpH7-B3 variant Y300_08L/GpL16-k0 (antibody, human IgG1, kappa, homodimerized IgG1; mutation in both H chains; also called Ho Ab) heavy: not shown light: DIVMTQSPLSLPVTPGEPASISCQASESLVHSNRNTYLHWYLQKPGQSPQLLIYKVSNRFSGVPDRFSGSGSGTDFTLKISRVEAEDVGVYYCSQNTHVPPTFGQGTKVEIERTVAAPSVFIFPPSDEQLKSGTASVVCLLNNFYPREAKVQWKVDNALQSGNSQESVTEQDSKDSTYSLSSTLTLSKADYEKHKVYACEVTHQGLSSPVTKSFNRGEC | 109 % of control (GpH7-B3/GpL16-k0 = 100) | 
11 | GpH7-B3 variant Y300_09D/GpL16-k0 (antibody, human IgG1, kappa, homodimerized IgG1; mutation in both H chains; also called Ho Ab) heavy: not shown light: DIVMTQSPLSLPVTPGEPASISCQASESLVHSNRNTYLHWYLQKPGQSPQLLIYKVSNRFSGVPDRFSGSGSGTDFTLKISRVEAEDVGVYYCSQNTHVPPTFGQGTKVEIERTVAAPSVFIFPPSDEQLKSGTASVVCLLNNFYPREAKVQWKVDNALQSGNSQESVTEQDSKDSTYSLSSTLTLSKADYEKHKVYACEVTHQGLSSPVTKSFNRGEC | 111 % of control (GpH7-B3/GpL16-k0 = 100) | 

Continued, values first:

Row | Ho/Con_1a | He/Con_1a | Binder
12 | 110 % of control (GpH7-B3/GpL16-k0 = 100) |  | GpH7-B3 variant Y300_20W/GpL16-k0 (antibody, human IgG1, kappa, homodimerized IgG1; mutation in both H chains; also called Ho Ab) heavy: not shown light: DIVMTQSPLSLPVTPGEPASISCQASESLVHSNRNTYLHWYLQKPGQSPQLLIYKVSNRFSGVPDRFSGSGSGTDFTLKISRVEAEDVGVYYCSQNTHVPPTFGQGTKVEIERTVAAPSVFIFPPSDEQLKSGTASVVCLLNNFYPREAKVQWKVDNALQSGNSQESVTEQDSKDSTYSLSSTLTLSKADYEKHKVYACEVTHQGLSSPVTKSFNRGEC
13 | 110 % of control (GpH7-B3/GpL16-k0 = 100) |  | GpH7-B3 variant Y300_19Q/GpL16-k0 (antibody, human IgG1, kappa, homodimerized IgG1; mutation in both H chains; also called Ho Ab) heavy: not shown light: DIVMTQSPLSLPVTPGEPASISCQASESLVHSNRNTYLHWYLQKPGQSPQLLIYKVSNRFSGVPDRFSGSGSGTDFTLKISRVEAEDVGVYYCSQNTHVPPTFGQGTKVEIERTVAAPSVFIFPPSDEQLKSGTASVVCLLNNFYPREAKVQWKVDNALQSGNSQESVTEQDSKDSTYSLSSTLTLSKADYEKHKVYACEVTHQGLSSPVTKSFNRGEC
14 | 110 % of control (GpH7-B3/GpL16-k0 = 100) |  | GpH7-B3 variant Y300_13S/GpL16-k0 (antibody, human IgG1, kappa, homodimerized IgG1; mutation in both H chains; also called Ho Ab) heavy: not shown light: DIVMTQSPLSLPVTPGEPASISCQASESLVHSNRNTYLHWYLQKPGQSPQLLIYKVSNRFSGVPDRFSGSGSGTDFTLKISRVEAEDVGVYYCSQNTHVPPTFGQGTKVEIERTVAAPSVFIFPPSDEQLKSGTASVVCLLNNFYPREAKVQWKVDNALQSGNSQESVTEQDSKDSTYSLSSTLTLSKADYEKHKVYACEVTHQGLSSPVTKSFNRGEC
15 | 110 % of control (GpH7-B3/GpL16-k0 = 100) |  | GpH7-B3 variant Y300_14T/GpL16-k0 (antibody, human IgG1, kappa, homodimerized IgG1; mutation in both H chains; also called Ho Ab) heavy: not shown light: DIVMTQSPLSLPVTPGEPASISCQASESLVHSNRNTYLHWYLQKPGQSPQLLIYKVSNRFSGVPDRFSGSGSGTDFTLKISRVEAEDVGVYYCSQNTHVPPTFGQGTKVEIERTVAAPSVFIFPPSDEQLKSGTASVVCLLNNFYPREAKVQWKVDNALQSGNSQESVTEQDSKDSTYSLSSTLTLSKADYEKHKVYACEVTHQGLSSPVTKSFNRGEC
16 | 101 % of control (GpH7-B3/GpL16-k0 = 100) |  | GpH7-B3 variant Y300_11K/GpL16-k0 (antibody, human IgG1, kappa, homodimerized IgG1; mutation in both H chains; also called Ho Ab) heavy: not shown light: DIVMTQSPLSLPVTPGEPASISCQASESLVHSNRNTYLHWYLQKPGQSPQLLIYKVSNRFSGVPDRFSGSGSGTDFTLKISRVEAEDVGVYYCSQNTHVPPTFGQGTKVEIERTVAAPSVFIFPPSDEQLKSGTASVVCLLNNFYPREAKVQWKVDNALQSGNSQESVTEQDSKDSTYSLSSTLTLSKADYEKHKVYACEVTHQGLSSPVTKSFNRGEC
